Measurements from paper PMC8752837, “Structural basis of BAK activation in mitochondrial apoptosis initiation” (Nature Communications, 2022).
Like-named read-outs stand apart in the source and are kept apart here.

How the values were obtained:
GST-BAK (human) = assay: fluorescence polarisation; competitive: displacement of 10 nM BID BH3 SAHB-F from 1 µM GST-BAK by peptides at 500-0.2 µM; 50 mM Tris-HCl pH 7.5, 50 mM KCl, 0.1 mg/mL BSA, 2 mM DTT, 0.005% Tween-20; 60 min at RT
[1] = molecular target: T1, MEAS-BAK-His6 (C-terminus truncated recombinant human BAK containing C-terminal 6x histidine tag) (human) (UniProt Q16611)
T1 sequence: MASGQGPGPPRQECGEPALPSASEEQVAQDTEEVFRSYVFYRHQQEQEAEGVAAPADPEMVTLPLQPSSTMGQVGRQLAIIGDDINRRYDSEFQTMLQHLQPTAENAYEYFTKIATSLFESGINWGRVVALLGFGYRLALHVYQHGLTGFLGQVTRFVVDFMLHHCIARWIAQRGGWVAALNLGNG

[2] = molecular target: T1, MEAS-BAK-His6 (C-terminus truncated recombinant human BAK containing C-terminal 6x histidine tag) (human); assay: SPR; MEAS-BAK-His6 captured (~500 RU) on Ni-NTA HisCap chip, peptides injected; 20 °C; 20 mM HEPES pH 8.0, 200 mM NaCl, 1 mM TCEP, 0.01% Tween20; 1:1 interaction model
[3] = molecular target: T2, Human BAK-∆TM-His6 (human); assay: SPR; MEAS-BAK-His6 captured (~500 RU) on Ni2+-charged NTA HisCap chip, peptides injected; 20 °C; 20 mM HEPES pH 8.0, 200 mM NaCl, 1 mM TCEP, 0.01% Tween20; 1:1 interaction model
T2 sequence (Q16611 whole entry, looked up): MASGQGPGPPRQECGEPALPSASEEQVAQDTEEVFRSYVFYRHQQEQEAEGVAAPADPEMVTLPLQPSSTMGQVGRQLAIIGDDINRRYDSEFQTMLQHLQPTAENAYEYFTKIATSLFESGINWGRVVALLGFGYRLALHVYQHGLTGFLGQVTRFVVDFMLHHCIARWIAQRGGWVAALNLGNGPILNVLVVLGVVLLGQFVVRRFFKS

[4] = molecular target: tevBAK (residues 22–186) (human) (UniProt Q16611); assay: ITC; 250 or 500 µM BID BH3 peptide injected into 20 or 50 µM tevBAK; 25 °C; 20 mM HEPES, 100 mM NaCl, 1 mM TCEP; single site binding model
[5] = molecular target: T1, MEAS-BAK-His6 (C-terminus truncated recombinant human BAK containing C-terminal 6x histidine tag) (human); assay: SPR; MEAS-BAK-His6 captured (~500 RU) on Ni-NTA HisCap chip, peptides injected; 20 °C; 20 mM HEPES pH 8.0, 200 mM NaCl, 1 mM TCEP, 0.01% Tween20; 1:1 interaction model; remark: listed apart in the source

Row | Substance | IC50 (GST-BAK (human)) | Kd [2] | koff [2] | kon [2] | also measured
1 | Y(3) BID BH3 peptide | 6.2 µM |  |  |  | 
2 | WT BID BH3 peptide |  | 62.3 µM | 0.261 s⁻¹ | 4190 M⁻¹ s⁻¹ | Supplementary Table 1: liposome permeabilization EC50 (peptide dose against AUC, 50 nM BAK; data of Supplementary Figure 7c) [1]: 59 nM
3 | M(3)W(5) BID-like BH3 peptide |  |  |  |  | fold higher affinity than WT BID BH3 [3]: 30 fold; fold higher affinity than WT BID BH3 [4]: 30 fold

The next lines start with results.

Row | IC50 (GST-BAK (human)) | Kd [2] | koff [2] | kon [2] | Substance | also measured
4 | 6.9 µM |  |  |  | Y(4) BID BH3 peptide | 
5 |  | 0.336 µM | 0.0241 s⁻¹ | 71900 M⁻¹ s⁻¹ | W(3)W(5) BID BH3 peptide | kon [5]: 79100 M⁻¹ s⁻¹
